From a protein production outcome set (Wang et al. 2014)

experiment: label from the status in PepcDB records

| Sequence | protein production |
| --- | --- |
| MINDALKPYLEEKIESAKKTVPSFALEELKQKIISSPIQFGKSDIDDLVANLLKRYEQTKENSLIGKIDSIFKEISDMEKVMSGKAAEPAQPAEKPKKKAKLEAIGDDVVSIMVSLRWLEFLLDNYGPENTLDVLDYYESLGWISSTVKEQMMKYAKMTGVMNPAQEYKIKPSIQDHIINMLFIEKLRGEEINRDLIEALEREFRTIRKGVDELYGI | failed |
| MINLWKNGYDMVYGIRNRTTESWLKRVLTQAYYRILNLSSPIDIPESAGDFRLLDAKVVEAIKQLPEKNRYMKGLYAWVGFKSIGINFSEQERQHGHSSFNLKSLFNLAMSGLTGFSDLPLRVCIYLGAILALGAMSYGVWIIIKTLIEGISIPGWATLAAGMTLLGGIQLLFIGILGEYIGRIYAEVKNRPKYIISTEHSRTKQEHSIAHQENTFSSF | failed |
| MINPKVITRILANTDLKTKMRLAKVVPKLGKSDDVTKCMLCPNMCLHVCPVFDAERRLTVSPSVKSRLAYLGETEEAIYHCLPCDACKNACPMDISVNDNLRGYRGGERAMKAIERFEKSMRKVEVEPRDGKILYFPGCSTFESGLFDVTVEVLEKLGVDFAVKNLECCGMPYYELGLVDKFRGKISSLKDAAAKYEGVISNCPHCVHVMRENGIKAAHLLAVLKPVKIGGDVSYHDPCILARKLDIVEEPRRLLAEMGFVVHEPVFNGKDTHCCGYGGVYRFVVPEMAEKVAERRMEHFEHQIVTLCPSCRMALKAKDIVEIIAEGL | failed |
| MINSFKSVFLTIRYFIQNDLATQASALTYRTILSIVPMLAVLIGIAKGFGIQQVVHDWLKEYLPGHQQELEQALGYVENYLAQVQGGIFVGVGLIVLLYTVFSLIATVEDTFTDIWQTNKRRTWKRRVIDYMGAFFLLPILITASSGLTLMMTTIKGTYFSEYILFGPMLELILNLIPYVIIVLLFTGMYIVLPTVNVRFWPAFISGVLAGIVFQIFQALYISGILWISKYNAIYGSFAAVPLLLLWIQLSWTIVLFGAQLSFSIQNVRKFAFERDTTNVSRRYIDFITIVVASLIVKRFISDERRPHTADSLAEESKAPIRLVSEAIHRLLSIEAITEVNYAHDPKAEFFSPAIDPEKITVGFILDRIDRYGSEHFKVDNKVRFAPEWQAIEDSRQSLHIPPADTLLKNL | failed |
| MINTMTLDNGVRIITEKMSTVRSVSIGIWVGTGSRYESAEENGISHFLEHMFFKGTNTRSAQEIAEFFDSIGGQVNAFTSKEYTCYYAKVLDDHAGQAIDTLSDMFFHSTFQKEELEKERKVVFEEIKMVDDTPDDIVHDLLSSATYGKHSLGYPILGTVETLNSFNEGMLRHYMDRFYTGDYVVISVAGNVHDELIDKIKETFSQVKPTTYNYQGEKPMFLPNRIVRKKETEQAHLCLGYPGLPIGDKDVYALVLLNNVLGGSMSSRLFQDIREKRGLCYSVFSYHSSFRDSGMLTIYAGTGHDQLDDLVYSIQETTSALAEKGLTEKELENGKEQLKGSLMLSLESTNSRMSRNGKNELLLKKHRSLDEMIEQINAVQKQDVSRLAKILLSASPSISLINANGELPKALIH | failed |
| MINVEQVFALDIGTRLVMGLIMEKAPGGYHIIARAQTEHRQRAMYDGQIHDIEEVAQAVQRVKEELEEKIKGKLHYVSVAAAGRALKTAVATAQKSELIPMIWEREDIFALEMEAVQQALREIQAEDEIIPYHCVGYSTIESLLEGQNLSSLSGQRGKEAQVKVIATFLPRTVIDGLTRVISKVGLEMRELTLEPIAAGRAAIPPDMRRMNLALVDVGAGTSDIALTKSGSFFAYGMVPMAGDEITERICQHFLVDFQTGEKIKRSLNTKTKVTFTDFLGMKTTVNKEEVLEQIQPVVLELAQKLADEILRLNQGNPHAIILIGGGSQTPLLAEVLSDLLELPRNRVGIQVRERIQGVSGEKSLKGPDAITPIGIGISTIEGEGLQYFSVHVNDLTVQIFELQLATVSDALLAAGITPRLLVGRPGSALTVELNGDIKVSKGQFSKPAQFFLNGEEVKLDHELKPGDKIQFIPAQDGENAQATFADLVPAIPEKKIKVNGESVVFTAQIFCNGRPVTRDGDVPDGAKITVFQNQTLKDLLHFLNDKQYSLSEIRYKINGEERVIPIHKEFYINQQKVALERMIKDGDDLVILVKEVYIKDLQLKPTPMVFYVNGQEVEYPPQIFRILSRGRVLSDQEKVVDGMELSVEGYDTMPLLSELLPYVNIPQDVPANARLSLKRNNQEAEFTTPLIPGDRIEIHWEQVASALLEHHHHHH | not failed |
| MINYNKTQHLIESMVFERVVPGVNYAFIKNKQIFTSTTGFASIYPEVTQLSPFAEYDLASLTKVLATENVLLKLYDQGELNFTEPLKEFIPTFKDPKVRLYHLLTHTSGIRGWIPHRDELSHDELLNALINLPVTDEFEHKMRYADTNFILLGLVIKSIFGASVQEVATKEIFDQMPLINTTFTPNKSECVPTAIINDQVLQGIPHDPKARQLGLDCGSAGLFSNMRDLITFSQGYLGLKRNVLPYSQDTVSELFDDKTPKGVKPRSWGWDIRFDPKYHYPIILHTGFTGTLIILDRLKKSGLILLTNRVHPTGHNTIFLAMREKIIRSFLNENSKI | failed |
| MINYPNLPNSALEITEQPEVKEITNELLKQLQNALNSNSLFSEQVELSLKGIVRILEVLLSLDFFKNANEIDSSLRNSIEWLNNAGESLKTKMKEYEGFFSDFNTSMRTNEQEVSATLNANTENIKSEIKKLENQLIETTTRLLTSYQIFLNNARDSANNQITANKTESLEALNQAKTSANNEITANQTQALTNINEAKENANNQITENKTQAITNINEARESATTQITTNKQEVLNSITQEKNQATSEITEAKKSAFNELLETLKPKFSGLFAGAYYIRNVIIFKADGRRKSRI | failed |
| MIPLSPDTLLAARLLAEGDLAGALRAAQAGLQAEPGNAPLWNLLGVCAARLGQAALAEQCWRQALSLDPATPDAHYNLGCLASERDDAAAADAHYRAELARDPDHCSSLGNLGNLLQDAGRLDEAETCFRRRLAIQPGAAAHYQLGRLLAERGRNGEAEAQLRACLDETPDDVEALQLLGRLLEERGEAGEAEAMLRRALESAPGHAAAGNNLGLLLMAQRRWDEAESPLRAAHAAQPGAALPNLASLLLATGRAAEAETLARQALAAEPGRADWLNLLGLALREQGRDEEAGLAWEQGLASVPDHRRLRQNLGYLQLARGDWAAGWAHHEARLESAVYPALPSPRWQGESLAGRRLLVLFEQGYGDAIQFSRYLNPLLEQGAARVVALCREPLSPLFSRQWPQVAWLAMGSGYPAAFPPHDCHVFSMSLPWALRDFEPRAETYLQADPALRQAWRARLPPGRNIGLVWRRPAPSTRSTIAVPCRGRRLCCRCWPIPAPTGFRCSRSRPMSNANGCSNMAWRSGVPNWGISPTARRCWRNWTAWWPWTPRWRTWRARWACLAGCCWPASMWTGAGDGMAKRRRGTTRFVCSAKGAARDGARRSPGCERRNAQRSRLPGCISRSRSDGCLMLRIRK | failed |
| MIPPELDMSLLLEFIGANEGTGHFKPLEKKFVRVSGEATIGHVEKFLRRKMGLDPACQVDIICGDHLLEQYQTLREIRRAIGDAAMQDGLLVLHYGLVVSP | not failed |
| MIPTHLPILQVVVPLMAAPVCILLRRPGLCWAWALLIALTTLTMAVGLLAGVLTHGPSAYHLGDWSPPWGIELHVDLLSALVLVLVTATASLVIVYARASFAAEIDPGHHTLAYCLFLLCLTGLLGMAITGDAFNLFVFLEISSLSSYALVALGRDRRALYAAYHYLILGTVGATFYVIGIGFLYMMTGTLNMNDLAQRLPAVAHSRTAVAGVVFLGVGLSLKLALFPLHKWLPAAYSYAPSAVGAFLAATSTKVAFYVMVRLFLGVLAPAFSANLLPGPVSAREMVMVLALAAILSGSFSAIFQSDAKRLLAYSSVSQIGVMVLGLSLFSLDGVAGGLVHMLNHALIKASLFMALGCVFLRIGSVEIADMAGIGRRMPWTMAAFVIGGLSLIGIPGTAGFISKWQLAQSAIAEGWWLAVAALIASSLLAVVYVGKVIEAAYFRPSPAESPSGAPSAPQEAPAMMLAPLWIAALANIGFGLNTTWTLGLAKRAASALMGLPS | failed |
| MIPTSREERLKGRRHVRTSEDRSFLVLLAAISVAFGWLLWPFSGALLWATLLAIIFAPLYRLCLETFPEWRNLAALSTVLVVVVMVLIPVAVVIASLVEQGGELYQRVQTGEISFAHPLQQLKSALPDWAASVSDRLAGIDLSALKERLSSLVVPAGQQLAGHAINIGQLTVEFVASLLVMLYLLFFFLRDGDELNLRIRDALPLRRSHTAAILDAFTLSVRGTIKGIILVALIQGALGGLIFWLLGLTAPLLAGALMALLSLLPVLGSALVWVPVGLYLLVAGAVTKGMILLVFGTFVIGLADNFLRPVLVGQSIRMPSYVVLLATLGGLATFGANGFVIGPLVAAMFLTAWHIFVGSKEQQEVRN | failed |
